From patent US20230272011A1 (AVACTA LIFE SCIENCES, published 2023)

Tests used:
human serum albumin [1] = target: T1, human serum albumin (human, UniProt P02768 25-609); assay: Biacore, immobilised HSA, pH 7.4
T1 construct: mature; Bought protein; biotinylated in the Octet and HTRF assays; also called HSA; HuSA
Experimental: Affinities for mouse, human, and cynomolgus serum were also measured at pH 7.4 for four (4) AFFIMER® binders using surface plasmon resonance (SPR) (FIG. 5, Table 5). […] A concentration titration of AFFIMER® monomers was run as analyte at a flow rate of 30 μl/min or 60 μl/min. Fc2-1, Fc3-1 and Fc4-1 kinetic data was blank subtracted and fit to a 1:1 Langmuir binding model (BIAcore Evalution software; GE) to calculate KD values.
The AFFIMER® polypeptides were produced and purified from E. coli as described in Example 3.

human serum albumin [2] = target: T1, human serum albumin; assay: Octet biolayer interferometry, pH 7.4
Experimental: (§1) Biotinylated antigen was captured onto SA sensors at 1 μg/ml for 600 seconds in a buffer comprising PBS-T (0.01% Tween 20)+1% casein at either pH 6.0 or 7.4. Association was carried out for 300 seconds and dissociation for 600 seconds, and regeneration was performed using 10 mM glycine pH 1.5 (GE Healthcare) for 3×5 seconds. All steps were carried out at 1000 rpm and 25° C. Purified AFFIMER® polypeptide in two-fold serial dilutions was analyzed at a starting concentration of approximately 10× K_{D value}. Kinetics analyses were carried out using the Octet data analysis software, subtracting the reference sensor (loaded with antigen), aligning the Y-axis to baseline, and using inter-step correction to align association to dissociation. Savitzky-Golay filtering was applied and the data processed. Analysis of the data was carried out with a 1:1 model, global fit, Rₘₐₓ unlinked by sensor.
(§2) AFFIMER® polypeptides were incubated with AcTEV for 1 hour at 30° C. as recommend by the manufacturer (Invitrogen) and removal of cleaved His tag by binding NiNTA resin (Generon) and collecting the cleaved protein flow through. […] Pharmacokinetic profile of IV-injected His tag cleaved AFFIMER® protein compared to C-terminally His-tagged AFFIMER® protein was evaluated.

mouse serum albumin = target: T2, mouse serum albumin (mouse, UniProt P07724 25-608); assay: Octet biolayer interferometry, pH 7.4
T2 construct: also called MSA
T2 sequence (P07724 25-608 limits assumed): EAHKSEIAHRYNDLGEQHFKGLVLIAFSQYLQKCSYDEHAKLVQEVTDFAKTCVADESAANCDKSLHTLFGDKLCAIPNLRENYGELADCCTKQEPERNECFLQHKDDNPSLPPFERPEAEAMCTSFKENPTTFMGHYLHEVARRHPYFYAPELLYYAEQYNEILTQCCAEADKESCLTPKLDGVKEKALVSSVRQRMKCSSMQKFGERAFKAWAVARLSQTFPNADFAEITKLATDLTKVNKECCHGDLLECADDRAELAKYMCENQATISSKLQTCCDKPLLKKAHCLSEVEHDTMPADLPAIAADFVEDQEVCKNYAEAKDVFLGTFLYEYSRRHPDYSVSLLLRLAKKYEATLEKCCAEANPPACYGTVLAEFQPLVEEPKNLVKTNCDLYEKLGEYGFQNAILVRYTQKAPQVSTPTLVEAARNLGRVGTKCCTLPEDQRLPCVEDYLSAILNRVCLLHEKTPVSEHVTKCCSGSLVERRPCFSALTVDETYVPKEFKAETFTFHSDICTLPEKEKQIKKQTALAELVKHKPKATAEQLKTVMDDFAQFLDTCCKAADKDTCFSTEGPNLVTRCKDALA
Experimental: as §1, §2

cynomolgus serum albumin = target: T3, cynomolgus serum albumin (cynomolgus); assay: Octet biolayer interferometry, pH 7.4
T3 construct: also called CSA; cyno serum albumin
T3 sequence (A2V9Z4 25-608): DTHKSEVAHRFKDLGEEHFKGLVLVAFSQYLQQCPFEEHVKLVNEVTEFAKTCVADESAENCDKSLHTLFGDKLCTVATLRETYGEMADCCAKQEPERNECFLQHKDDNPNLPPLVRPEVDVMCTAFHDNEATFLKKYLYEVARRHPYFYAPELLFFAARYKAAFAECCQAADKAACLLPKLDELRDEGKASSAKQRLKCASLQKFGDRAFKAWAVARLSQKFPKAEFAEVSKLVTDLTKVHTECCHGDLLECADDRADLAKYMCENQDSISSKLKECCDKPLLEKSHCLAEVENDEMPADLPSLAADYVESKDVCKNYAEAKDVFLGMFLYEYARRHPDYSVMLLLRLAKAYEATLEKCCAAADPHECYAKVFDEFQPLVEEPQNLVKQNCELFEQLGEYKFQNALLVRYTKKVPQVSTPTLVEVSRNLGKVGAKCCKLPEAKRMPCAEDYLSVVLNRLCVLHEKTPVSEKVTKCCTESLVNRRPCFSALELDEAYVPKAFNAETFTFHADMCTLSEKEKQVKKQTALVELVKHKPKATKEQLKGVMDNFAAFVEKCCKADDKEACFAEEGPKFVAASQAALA
Experimental: as §1, §2

Kd (human serum albumin [1]): 2.84 nM
koff (human serum albumin [1]): 0.00347 s⁻¹
kon (human serum albumin [1]): 1.22e+06 M⁻¹ s⁻¹
Kd (human serum albumin [2]): 7.74 nM
Kd (mouse serum albumin): 82 nM
Kd (cynomolgus serum albumin): 209 nM
B1: HSA-41 (designed binder)
chain: MIPRGLSEAKPATPEIQEIVDKVKPQLEEKTNETYGKLEAVQYKTQVLANFFQRRWPGSTNYYIKVRAGDNKYMHLKVFNGPWKFRNTDRGADRVLTGYQVDKNKDDELTGFHHHHHH
notes: also called HSA-41 parent; HSA-41 AH parent
